Measured values published in PMC8794802.

Assays:
Pus7 delta ID-I = biological target: T1, Pus7 delta ID-I (Saccharomyces cerevisiae, UniProt Q08647 1-74+216-676, internal_change); test: EMSA
T1 sequence: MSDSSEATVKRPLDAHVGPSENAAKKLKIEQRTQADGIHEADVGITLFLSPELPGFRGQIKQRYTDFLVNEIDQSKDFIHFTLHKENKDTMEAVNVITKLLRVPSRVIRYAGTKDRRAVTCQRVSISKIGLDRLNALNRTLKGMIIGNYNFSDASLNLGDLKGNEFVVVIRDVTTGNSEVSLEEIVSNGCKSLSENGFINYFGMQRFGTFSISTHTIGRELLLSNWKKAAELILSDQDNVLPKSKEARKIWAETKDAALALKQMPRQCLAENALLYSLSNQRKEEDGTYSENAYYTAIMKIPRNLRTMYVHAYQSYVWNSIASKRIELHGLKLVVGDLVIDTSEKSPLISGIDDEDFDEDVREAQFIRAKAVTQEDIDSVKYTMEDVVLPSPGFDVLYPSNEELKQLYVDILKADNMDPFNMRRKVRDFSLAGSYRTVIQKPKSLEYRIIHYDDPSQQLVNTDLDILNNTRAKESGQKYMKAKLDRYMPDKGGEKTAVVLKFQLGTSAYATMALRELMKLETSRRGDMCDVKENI

Pus7 WT = biological target: T2, Pus7 WT (Saccharomyces cerevisiae, UniProt Q08647 1-676); test: EMSA
T2 sequence: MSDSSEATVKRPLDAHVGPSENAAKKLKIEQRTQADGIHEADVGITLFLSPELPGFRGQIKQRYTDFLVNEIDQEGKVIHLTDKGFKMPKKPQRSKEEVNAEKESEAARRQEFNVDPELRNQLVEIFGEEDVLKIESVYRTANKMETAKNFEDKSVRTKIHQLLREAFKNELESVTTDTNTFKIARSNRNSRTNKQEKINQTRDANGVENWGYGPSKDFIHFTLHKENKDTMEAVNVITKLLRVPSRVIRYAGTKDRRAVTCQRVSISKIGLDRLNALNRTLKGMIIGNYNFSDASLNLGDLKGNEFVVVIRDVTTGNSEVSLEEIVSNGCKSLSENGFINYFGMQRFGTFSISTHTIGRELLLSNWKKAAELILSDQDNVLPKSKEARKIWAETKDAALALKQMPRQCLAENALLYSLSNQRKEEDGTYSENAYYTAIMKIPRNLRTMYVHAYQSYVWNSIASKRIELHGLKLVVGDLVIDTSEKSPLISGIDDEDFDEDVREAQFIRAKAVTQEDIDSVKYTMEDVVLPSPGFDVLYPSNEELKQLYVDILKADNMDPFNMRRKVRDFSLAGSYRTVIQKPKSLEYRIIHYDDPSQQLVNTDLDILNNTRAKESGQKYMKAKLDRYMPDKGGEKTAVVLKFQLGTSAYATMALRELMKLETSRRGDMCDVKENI

B1: Psi-modified CDC8 (ssRNA)
RNA: GUCAAUCACGAUUGUAGACGUUACUAAUAAGGGCAUUCAGGAAGUUGAAGCGCUUAUUUGG
modifications: pseudouridine at the UGUAG target U (U15)
Pus7 delta ID-I
  binding signal: 8 fold weaker than D256A/delta ID-I on unmodified CDC8
Pus7 WT
  Kd: 75 ± 15 nM
